This is an account of results in FireProtDB (doi:10.1110/ps.03176803).

The conditions of this data set: Kitasatospora aureofaciens; pH 7; Thermal; DSC; PIPES 0.03 M; reversible: yes (90-95%); whole UniProt chain shown.

B1: Guanyl-specific ribonuclease Sa wild type, P05798 (protein)
chain: DVSGTVCLSALPPEATDTLNLIASDGPFPYSQDGVVFQNRESVLPTQSYGYYHEYTVITPGARTRGTRRIITGEATQEDYYTGDHYATFSLIDQTC
As to B1, the midpoint of thermal melting (Tm) (usually the temperature at which the thermal transition is half complete) is 49 °C, the “unfolding enthalpy (calorimetric)” value turned out to be 92 kcal/mol and the “unfolding enthalpy (van 't Hoff)” value was found to be 103 kcal/mol.
